According to patent US20200123264A1 (Regeneron, published 2020):

T1: human LEPR CRH1 (D1,D2,D3)-MMH (human, UniProt P48357 22-427, limits assumed)
T1 construct: domain: CRH1-Ig (D1,D2,D3); Transiently expressed, captured from supernatant on anti-myc beads; also called CRH1-Ig (D1, D2, D3)
T1 sequence (looked up): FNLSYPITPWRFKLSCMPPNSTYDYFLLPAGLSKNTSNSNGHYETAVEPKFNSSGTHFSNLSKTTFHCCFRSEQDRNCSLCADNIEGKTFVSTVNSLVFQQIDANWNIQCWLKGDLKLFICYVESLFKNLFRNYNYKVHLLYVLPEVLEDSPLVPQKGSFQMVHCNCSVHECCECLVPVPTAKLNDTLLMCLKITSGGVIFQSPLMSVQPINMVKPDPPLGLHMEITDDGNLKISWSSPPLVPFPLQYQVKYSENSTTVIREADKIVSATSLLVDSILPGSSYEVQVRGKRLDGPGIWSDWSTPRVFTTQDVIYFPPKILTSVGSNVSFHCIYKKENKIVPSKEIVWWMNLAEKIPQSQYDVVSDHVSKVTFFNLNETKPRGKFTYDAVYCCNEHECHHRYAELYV

T2: human LEPR FNIII-MMH (human, UniProt P48357 636-839, limits assumed)
T2 construct: domain: FNIII; Transiently expressed, captured from supernatant on anti-myc beads
T2 sequence (looked up): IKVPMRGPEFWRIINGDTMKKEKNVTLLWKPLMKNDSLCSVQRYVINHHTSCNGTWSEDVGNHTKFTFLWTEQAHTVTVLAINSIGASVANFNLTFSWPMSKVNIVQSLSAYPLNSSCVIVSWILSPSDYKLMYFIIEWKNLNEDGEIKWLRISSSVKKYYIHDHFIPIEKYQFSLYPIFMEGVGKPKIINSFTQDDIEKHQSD

T3: human LEPR Ig-CRH2-FNIII-MMH (human, UniProt P48357 330-839, limits assumed)
T3 construct: domain: Ig-CRH2-FNIII; Transiently expressed, captured from supernatant on anti-myc beads
T3 sequence (looked up): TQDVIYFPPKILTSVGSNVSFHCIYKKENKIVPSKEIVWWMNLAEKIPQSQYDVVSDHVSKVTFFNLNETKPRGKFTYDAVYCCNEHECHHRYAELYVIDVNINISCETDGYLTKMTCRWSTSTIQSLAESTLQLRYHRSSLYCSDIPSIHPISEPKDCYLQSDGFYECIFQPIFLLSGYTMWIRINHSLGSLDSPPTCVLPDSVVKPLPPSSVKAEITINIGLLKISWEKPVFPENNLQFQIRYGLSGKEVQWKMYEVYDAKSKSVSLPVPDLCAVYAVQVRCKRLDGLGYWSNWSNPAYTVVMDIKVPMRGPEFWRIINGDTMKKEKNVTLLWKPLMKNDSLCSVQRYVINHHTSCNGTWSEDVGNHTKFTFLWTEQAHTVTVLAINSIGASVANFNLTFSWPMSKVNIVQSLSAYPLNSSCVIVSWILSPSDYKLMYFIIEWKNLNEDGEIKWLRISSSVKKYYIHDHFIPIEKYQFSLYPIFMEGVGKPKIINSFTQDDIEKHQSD

T4: human LEPR CRH1 (D1,D2)-MMH (human, UniProt P48357 22-339, limits assumed)
T4 construct: domain: CRH1 (D1,D2); Transiently expressed, captured from supernatant on anti-myc beads
T4 sequence (looked up): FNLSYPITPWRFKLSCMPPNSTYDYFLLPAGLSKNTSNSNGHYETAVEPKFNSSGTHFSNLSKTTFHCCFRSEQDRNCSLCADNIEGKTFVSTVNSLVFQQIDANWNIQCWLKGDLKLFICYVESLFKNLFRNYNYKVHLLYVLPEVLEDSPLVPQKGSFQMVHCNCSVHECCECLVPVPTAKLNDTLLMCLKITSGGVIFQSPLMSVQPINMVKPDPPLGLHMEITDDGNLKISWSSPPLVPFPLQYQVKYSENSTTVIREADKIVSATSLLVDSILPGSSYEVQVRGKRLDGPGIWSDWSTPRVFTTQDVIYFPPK

T5: human LEPR CRH2-MMH (human, UniProt P48357 428-634, limits assumed)
T5 construct: domain: CRH2; Transiently expressed, captured from supernatant on anti-myc beads
T5 sequence (looked up): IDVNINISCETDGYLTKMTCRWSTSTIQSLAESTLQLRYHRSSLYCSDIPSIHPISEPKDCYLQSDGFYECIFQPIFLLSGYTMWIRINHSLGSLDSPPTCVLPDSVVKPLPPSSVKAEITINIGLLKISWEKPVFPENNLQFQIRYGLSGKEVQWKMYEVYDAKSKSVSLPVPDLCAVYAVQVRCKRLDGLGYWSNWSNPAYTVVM

T6: human LEPR CRH1 (D1)-MMH (human, UniProt P48357 22-229, limits assumed)
T6 construct: domain: CRH1 (D1); Transiently expressed, captured from supernatant on anti-myc beads
T6 sequence (looked up): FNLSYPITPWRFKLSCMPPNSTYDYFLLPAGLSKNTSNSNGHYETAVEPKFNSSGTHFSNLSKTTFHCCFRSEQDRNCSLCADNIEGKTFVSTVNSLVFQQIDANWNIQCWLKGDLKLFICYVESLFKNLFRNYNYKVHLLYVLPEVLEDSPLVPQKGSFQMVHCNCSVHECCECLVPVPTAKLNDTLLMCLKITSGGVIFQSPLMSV

B1: H4H18439P2 (antibody, human IgG4, V domains shown)
VH: QLQLQESGPGLVKPSETLSLTCIVSGGDITSSSYYWNWIRQPPGKGLEWIGNIYYSGSTNYNPSLKSRVTISIDTSKSQFSLKLRSVTAADTAVYYCARLLRYFDWSKGYLDYWGQGTLVTVSS
VL: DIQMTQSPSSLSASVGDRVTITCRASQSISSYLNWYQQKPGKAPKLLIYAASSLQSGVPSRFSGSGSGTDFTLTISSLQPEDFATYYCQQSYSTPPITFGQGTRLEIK
notes: H4H prefix: human IgG4 Fc
B2: H4H18457P2 (antibody, human IgG4, V domains shown)
VH: EVQLVESGGSVVRPGESLRLSCAASGFTFDDYGMSWVRQAPGKGLEWVSGISWNGGITVYADSVKGRFTVSRDNAKNSLYLQMNSLRAEDTALYHCARARYGGADYWGQGTLVTVSS
VL: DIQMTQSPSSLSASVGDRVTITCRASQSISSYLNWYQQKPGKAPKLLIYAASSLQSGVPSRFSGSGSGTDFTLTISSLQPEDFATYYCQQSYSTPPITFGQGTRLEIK
notes: H4H prefix: human IgG4 Fc
B3: H4H18462P2 (antibody, human IgG4, V domains shown)
VH: EVQLVESGGDLVQPGRSLRLSCAASGFTFSSFAMSWVRQAPGRGLEWVSSLSDSGDNTYYADSVKGRFTISRDNSKNTLYLQMNNLRAEDTAVYYCAKDLFSGWLFHGFDVWGQGTMVTVSS
VL: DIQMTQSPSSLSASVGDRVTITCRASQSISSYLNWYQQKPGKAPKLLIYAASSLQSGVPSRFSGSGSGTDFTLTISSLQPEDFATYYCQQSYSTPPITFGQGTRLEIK
notes: H4H prefix: human IgG4 Fc
B4: H4H18437P2 (antibody, human IgG4, V domains shown)
VH: QVQLVESGGGVVQPGRSLRLSCAASGFTFSSYGIHWVRQAPGKGLEWVAVISYDGNNKYYADSVKGRFTISRDNSKNTLYLQMNSLRAEDTAVYYCAKDLFLEWLFHGMGVWGQGTTVTVSS
VL: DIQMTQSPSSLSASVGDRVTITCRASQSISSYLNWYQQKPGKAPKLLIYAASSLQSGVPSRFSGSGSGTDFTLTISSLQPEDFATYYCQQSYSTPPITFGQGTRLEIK
notes: H4H prefix: human IgG4 Fc
B5: H4H18440P2 (antibody, human IgG4, V domains shown)
VH: QVQLVESGGGMVKPGGSLRLSCAASGFTFSDYYMSWIRQAPGKGLEWISHISITGSTIYYADSVKGRFTISRDNAKNSLYLEMNRLRDEDTAVYYCTRDEPDIVLVRYGMDVWGQGTTVTVSS
VL: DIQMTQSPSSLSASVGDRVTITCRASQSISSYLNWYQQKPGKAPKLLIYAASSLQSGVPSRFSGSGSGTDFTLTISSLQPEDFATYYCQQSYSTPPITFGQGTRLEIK
notes: H4H prefix: human IgG4 Fc
B6: H4H17322P2 (antibody, human IgG4, V domains shown)
VH: QLQLQESGPGLVKPSETLSLTCTVSGASISSSRFYGGWIRQPPGKGLEWIGDIYYSGNTYYNPSLQSRVTISVDTSKNQFSLKLSSVTAADTAVYYCARHLMITFGGLIVEGFDIWGQGTMVTVSS
VL: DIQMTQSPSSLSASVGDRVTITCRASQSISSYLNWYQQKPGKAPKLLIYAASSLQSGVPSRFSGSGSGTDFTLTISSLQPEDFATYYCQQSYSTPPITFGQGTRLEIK
notes: H4H prefix: human IgG4 Fc
B7: H4H18464P2 (antibody, human IgG4, V domains shown)
VH: QVQLVQSGPEVKKPGASVKVSCKGSGYTFSWYGISWIRQAPGHGLEWMGWISASSGNTRFAQKVQGRLTMTTDTSTSTAYMELRSLRSDDTAVYYCARTGTRPFDYWGQGTLVTVSS
VL: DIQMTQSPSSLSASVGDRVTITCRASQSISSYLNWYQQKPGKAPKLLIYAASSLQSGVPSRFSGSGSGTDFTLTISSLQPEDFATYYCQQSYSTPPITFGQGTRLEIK
notes: H4H prefix: human IgG4 Fc
B8: H4H18466P2 (antibody, human IgG4, V domains shown)
VH: EVQLVESGGGLVQPGGSLRLSCTASGFTFSSYGLHWVRQAPGKGLEYVSSINHNGGSKYYADSVKGRFTISRDNSKNTLFLQMGSLKTEDMAVYYCARDLFLEWLFHGFDIWGQGTMVTVSS
VL: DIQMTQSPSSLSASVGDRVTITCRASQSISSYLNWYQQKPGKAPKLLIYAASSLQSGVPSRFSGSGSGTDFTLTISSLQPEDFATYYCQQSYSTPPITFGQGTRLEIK
notes: H4H prefix: human IgG4 Fc

target: T1, human LEPR CRH1 (D1,D2,D3)-MMH; test: Luminex, myc-captured LEPR protein on beads, Ab 5 µg/mL
Method: (§1) Aliquots of microspheres with immobilized anti-myc monoclonal antibodies, prepared as described above, were added individually to 1 mL of the each of these protein supernatants. The microspheres were gently mixed, incubated for two hours at 25° C., washed twice with 1 mL of DBPS, centrifuged to remove the supernatant and finally resuspended in 1 mL of DPBS buffer. Forty eight μL of anti-myc IgG coupled microspheres from individual reactions with full length human LEPR and with each of the human LEPR domain proteins were withdrawn and mixed together in 3.6 mL of PBS+20 mg/mL BSA+0.05% sodium azide (blocking buffer).
(§2) From this mixed pool, 75 μL of microspheres were plated per well on a 96 well filter plate (Millipore, Cat. No: MSBVN1250) and mixed with 25 μL of individual anti-human LEPR monoclonal antibodies (0.5 or 5 μg/mL), incubated for two hours at 25° C. and then washed twice with 200 μL of DPBS with 0.05% Tween 20 (washing buffer). […] After 30 minutes, the samples were washed twice with 200 μL of washing buffer and resuspended in 150 μL of wash buffer. The Median Fluorescence intensity (MFI) of the microspheres was measured in a Luminex Analyzer.

Row | Luminex MFI | Binder
1 | 8020 MFI | B1
2 | 31 MFI | B2
3 | 3960 MFI | B3
4 | 34 MFI | B4
5 | 8240 MFI | B5
6 | 31 MFI | B6
7 | 5560 MFI | B7

target: T2, human LEPR FNIII-MMH; test: as above
Method: as §1, §2

Row | Luminex MFI | Binder
8 | 13 MFI | B1
9 | 1190 MFI | B2
10 | 457 MFI | B8
11 | 581 MFI | B3
12 | 1590 MFI | B4
13 | 10 MFI | B5
14 | 23 MFI | B6
15 | 23 MFI | B7

target: T3, human LEPR Ig-CRH2-FNIII-MMH; test: as above
Method: as §1, §2

Row | Luminex MFI | Binder
16 | 43 MFI | B1
17 | 13200 MFI | B2
18 | 11300 MFI | B8
19 | 14900 MFI | B3
20 | 15600 MFI | B4
21 | 32 MFI | B5
22 | 15100 MFI | B6
23 | 15100 MFI | B7

target: T4, human LEPR CRH1 (D1,D2)-MMH; test: as above
Method: as §1, §2

Row | Luminex MFI | Binder
24 | 21200 MFI | B1
25 | 53 MFI | B2
26 | 56 MFI | B8
27 | 5730 MFI | B3
28 | 82 MFI | B4
29 | 19300 MFI | B5
30 | 50 MFI | B6
31 | 59 MFI | B7

target: T5, human LEPR CRH2-MMH; test: as above
Method: as §1, §2

Row | Luminex MFI | Binder
32 | 16 MFI | B1
33 | 18 MFI | B2
34 | 17 MFI | B8
35 | 24 MFI | B3
36 | 25 MFI | B4
37 | 17 MFI | B5
38 | 19700 MFI | B6
39 | 24 MFI | B7

target: T6, human LEPR CRH1 (D1)-MMH; test: as above
Method: as §1, §2

Row | Luminex MFI | Binder
40 | 11 MFI | B1
41 | 13 MFI | B2
42 | 15 MFI | B8
43 | 5380 MFI | B3
44 | 21 MFI | B4
45 | 8 MFI | B5
46 | 14 MFI | B6
47 | 13 MFI | B7
